For assay [1], the target named is T1, human GPC3 on cells (human, UniProt P51654 25-554). The assay can be described thus: cell-based or functional assay.
Assay [2] concerns the target T2, cyno GPC3 (recombinant, in house produced) (cynomolgus, UniProt A0A2K5VK50 24-558).
T2 construct: also called cynomolgus Glypican-3
Briefly: SPR, ProteOn XPR36; GPC3 captured on anti-His antibody. On the procedure:
(§1) Recombinant GPC3 proteins were captured on a GLC Sensor Chip (Biorad) immobilized with THE anti-His antibody (Genscript, cat no ABIN387699) via amine coupling, using EDC and NHS chemistry (running buffer: HBS-EP+, pH7.4). Purified ISVDs were injected for 2 minutes (flow rate 45 μL/min) at different concentrations (between 0.3 nM and 1000 nM) and dissociation was followed for 900 s. Regeneration was performed by injecting 10 mM Glycine-HCl (pH 1.5) for 1 minute (flow rate 45 μL/min). […] Processed sensorgrams were analyzed based on the 1:1 interaction model (Langmuir binding model) using ProteOn Manager 3.1.0 (Version 3.1.0.6) software.
On the technique in general: SPR reads the build-up and loss of mass on a sensor chip optically.

The next assay has as its target T3, human GPC3 (recombinant) (human, UniProt P51654 25-559).
T3 construct: also called human Glypican-3
The assay is described as above. On the procedure: as §1

Assay [3] deals with T4, cynomolgus TCR on primary cynomolgus T cells (cynomolgus).
T4 construct: whole, on cells; also called cyno TCRαβ
The assay can be described thus: flow cytometry competition on primary cynomolgus T cells; competitor Flag-tagged T017000623 at EC30. On the procedure:
(§2) T cells (human T cells obtained as described in Example 3 and cyno T cells purchased from LPT laboratory, Germany) were thawed and counted on the day of the assay and diluted to a concentration of 1E+06 cells/mL, before adding 75 μL to the wells of a V-bottom 96-well plate (Greiner, cat no 651180). Cells were washed once with cold FACS buffer, before adding 25 μL Nb and 25 μL competitor to the wells. […] Cells were resuspended and plates were incubated at 4° C. for 90 minutes, after which plates were washed twice in cold FACS buffer. […] Plates were washed twice in cold FACS buffer. […] Plates were washed twice in cold FACS buffer. Cells were resuspended in 55 μL 1/1000 diluted Propidium Iodide (Sigma-Aldrich, cat no P4170) in FACS buffer before acquiring data on the MACSQuant X (Miltenyi biotec).
Background: A flow cytometer gives signals particle by particle.

Assay [4] deals with T5, human TCR on primary human T cells (human, UniProt P01848 1-140; P01850 1-176).
T5 construct: whole, on cells; also called human TCRαβ
T5 TCR alpha (looked up): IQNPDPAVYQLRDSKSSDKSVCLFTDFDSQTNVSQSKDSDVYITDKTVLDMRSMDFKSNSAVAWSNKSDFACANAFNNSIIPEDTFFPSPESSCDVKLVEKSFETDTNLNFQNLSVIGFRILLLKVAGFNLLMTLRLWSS
T5 TCR beta (looked up): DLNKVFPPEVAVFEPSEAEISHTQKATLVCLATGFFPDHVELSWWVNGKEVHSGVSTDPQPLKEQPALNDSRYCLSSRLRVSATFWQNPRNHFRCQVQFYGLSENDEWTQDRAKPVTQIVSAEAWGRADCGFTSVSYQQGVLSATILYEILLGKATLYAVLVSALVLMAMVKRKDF
The assay can be described thus: flow cytometry competition on primary human T cells; competitor Flag-tagged T017000624 at EC30. On the procedure:
as §2

For assay [5], the target named is T6, Cynomolgus TCR(AEA41865/AEA41866)-zipper protein (cynomolgus).
T6 construct: also called cyTCR-zipper; cyTCR(AEA41865)-zipper
T6 TCR alpha: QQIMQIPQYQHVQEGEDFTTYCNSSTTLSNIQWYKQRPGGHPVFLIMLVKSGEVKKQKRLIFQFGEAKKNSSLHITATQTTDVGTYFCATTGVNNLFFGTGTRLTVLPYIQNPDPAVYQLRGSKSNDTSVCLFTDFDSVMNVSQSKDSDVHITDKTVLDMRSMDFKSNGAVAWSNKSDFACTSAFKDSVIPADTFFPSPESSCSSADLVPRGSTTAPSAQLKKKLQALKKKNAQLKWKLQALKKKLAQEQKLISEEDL
T6 TCR beta: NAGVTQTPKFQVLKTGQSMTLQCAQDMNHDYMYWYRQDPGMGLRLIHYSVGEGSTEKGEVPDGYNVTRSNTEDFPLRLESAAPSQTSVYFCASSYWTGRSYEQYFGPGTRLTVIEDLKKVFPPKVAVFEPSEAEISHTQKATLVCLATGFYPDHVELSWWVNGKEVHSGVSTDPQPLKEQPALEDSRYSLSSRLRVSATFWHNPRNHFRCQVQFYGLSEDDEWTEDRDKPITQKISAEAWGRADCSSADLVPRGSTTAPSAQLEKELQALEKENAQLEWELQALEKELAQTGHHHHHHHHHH
The assay can be described thus: SPR, ProteOn XPR36; TCR-zipper protein immobilised by amine coupling. On the procedure: Purified ISVDs were injected for 2 minutes (flow rate 45 μL/min) at different concentrations (between 0.2 nM and 200 nM) and dissociation was followed for 900 s. Regeneration was performed by injecting 3 M MgCl₂ for 3 minutes (flow rate 90 μL/min). […] Processed sensorgrams were analyzed based on the 1:1 interaction model (Langmuir binding model) using ProteOn Manager 3.1.0 (Version 3.1.0.6) software.

Assay [6] deals with T5, human TCR on primary human T cells. The assay can be described thus: cell-based or functional assay.
The target in assay [7] is T4, cynomolgus TCR on primary cynomolgus T …. The assay can be described thus: cell-based or functional assay.
Assay [8] addresses T7, cyno GPC3 on CHO-Flp-In cells (cynomolgus, UniProt A0A2K5VK50 24-553).
T7 construct: whole, on cells; also called CHO cyGPC3
The assay can be described thus: flow cytometry, binding to CHO-Flp-In cells overexpressing cyno GPC3.

Assay [9] deals with T1, human GPC3 on cells. Briefly: flow cytometry, binding to Huh-7 cells.
Assay [10] addresses T1, human GPC3 on cells. Briefly: flow cytometry, binding to CHO-Flp-In cells overexpressing human GPC3.
Another assay addresses T8, human CD33 on cells (human, UniProt P20138 18-364).
T8 construct: whole, on cells; also called CHO hu CD33; huCD33
The assay can be described thus: flow cytometry on CHO cells transfected with human CD33.

A further assay concerns the target T9, cynomolgus CD33 on cells (cynomolgus).
T9 construct: whole, on cells; also called CHO cy CD33; cyCD33
The assay can be described thus: flow cytometry on CHO cells transfected with cynomolgus CD33.

The target of assay [11] is T10, Cynomolgus TCR(AEA41865/AEA41866)-zipper protein (cynomolgus monkey).
T10 construct: also called cyTCR-zipper protein; cynoTCR zipper
T10 TCR alpha: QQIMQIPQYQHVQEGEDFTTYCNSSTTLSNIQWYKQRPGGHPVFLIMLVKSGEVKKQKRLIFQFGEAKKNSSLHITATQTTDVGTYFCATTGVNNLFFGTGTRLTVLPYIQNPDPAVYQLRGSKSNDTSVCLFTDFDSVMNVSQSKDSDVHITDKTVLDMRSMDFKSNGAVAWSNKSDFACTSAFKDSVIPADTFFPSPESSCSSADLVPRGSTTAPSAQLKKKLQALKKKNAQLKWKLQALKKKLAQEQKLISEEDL
T10 TCR beta: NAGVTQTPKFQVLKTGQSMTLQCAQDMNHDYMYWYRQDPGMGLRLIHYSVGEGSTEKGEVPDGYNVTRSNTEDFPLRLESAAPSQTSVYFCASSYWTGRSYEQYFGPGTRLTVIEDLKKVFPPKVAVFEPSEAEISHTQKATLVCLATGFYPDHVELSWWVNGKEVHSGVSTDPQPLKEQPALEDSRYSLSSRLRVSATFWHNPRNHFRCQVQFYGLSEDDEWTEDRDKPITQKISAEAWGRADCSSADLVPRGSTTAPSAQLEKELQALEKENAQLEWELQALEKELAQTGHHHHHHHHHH
Briefly: table head: SPR ProteOn XPR36; text: BLI, Octet RED384, 25 C, immobilised TCR-zipper. On the procedure:
Affinity constants (KD) were calculated applying a 1:1 interaction model using the ForteBio Data Analysis software.

Assay [12] addresses T11, Human T cell receptor on human primary T cells (human, UniProt P01848 1-140; P01850 1-176).
T11 construct: whole, on cells
T11 TCR alpha (looked up): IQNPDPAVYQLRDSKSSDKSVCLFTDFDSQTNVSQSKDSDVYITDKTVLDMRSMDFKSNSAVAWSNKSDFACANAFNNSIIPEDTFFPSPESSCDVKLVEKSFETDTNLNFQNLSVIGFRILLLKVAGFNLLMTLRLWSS
T11 TCR beta (looked up): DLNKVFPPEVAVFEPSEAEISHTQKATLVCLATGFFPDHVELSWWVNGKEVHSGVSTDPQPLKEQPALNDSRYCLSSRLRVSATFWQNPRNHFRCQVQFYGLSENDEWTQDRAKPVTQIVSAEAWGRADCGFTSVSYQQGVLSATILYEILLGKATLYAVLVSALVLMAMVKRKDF
The assay can be described thus: flow cytometry, human primary T cells.

Assay [13] has as its target T11, Human T cell receptor on human primary …. The assay can be described thus: flow cytometry, human primary T cells.

The results in this text go back to patent US20240092919A1 (Ablynx, published 2024).

Where “and” joins values, the source holds several entries; their conditions need not be identical. Identical values can stand only once. Like-named read-outs stand apart in the source and are kept apart here.

As a reminder, the Kd is the equilibrium constant for the complex coming apart. Usually IC50 stands for the concentration that inhibits the measured activity by half. A high value points to weaker potency in that assay. For orientation: EC50 means the concentration giving half of the maximal effect. Higher therefore signals lower potency in that assay.

T8 sequence (P20138 18-364): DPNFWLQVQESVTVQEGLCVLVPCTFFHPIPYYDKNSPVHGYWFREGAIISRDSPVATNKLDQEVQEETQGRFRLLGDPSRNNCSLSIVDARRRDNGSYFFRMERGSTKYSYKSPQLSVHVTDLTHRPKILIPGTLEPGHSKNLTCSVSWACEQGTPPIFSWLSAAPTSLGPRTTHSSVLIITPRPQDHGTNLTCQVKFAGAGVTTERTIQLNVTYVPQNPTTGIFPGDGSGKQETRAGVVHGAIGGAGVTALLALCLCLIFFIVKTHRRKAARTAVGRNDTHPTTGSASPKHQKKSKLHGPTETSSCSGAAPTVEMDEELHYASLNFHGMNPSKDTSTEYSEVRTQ

B1: A022600424 (other)
chain: DVQLVESGGGVVQPGGSLRLSCVASGYVHKINFYGWYRQAPGKEREKVAHISIGDQTDYADSAKGRFTISRDESKNTVYLQMNSLRPEDTAAYYCRALSRIWPYDYWGQGTLVTVSSGGGGSEVQLVESGGGVVQPGGSLRLSCAASGFTFSSFAMTWVRRPPGKGLEWVATITNKGVTSYADSVKGRFTISRDNAKNTLYLQMNSLRPEDTALYICANARRTGPRAPTDIGSYRGQGTLVTVSSGGGGSGGGSEVQLVESGGGVVQPGGSLRLSCAASGSIFRSVFSSSTMEWYRQAPGKKRELVARIAPGEGTYYGALYADSVKGRFTISRDNAKNTVYLQMNSLRPEDTALYYCASGVAWGQGTLVTVSSGGGGSGGGSEVQLVESGGGVVQPGGSLRLSCAASGFTFRSFGMSWVRQAPGKGPEWVSSISGSGSDTLYADSVKGRFTISRDNSKNTLYLQMNSLRPEDTALYYCTIGGSLSRSSQGTLVTVSSA
notes: also called T017000680-5GS-A022600351-9GS-A022600314-9GS-ALB23002-A
B1: in the assay with human GPC3 on cells [1], the “IC50 (M) BxPC-3, xCELLigence human TDC assay, E:T 15:1, 60 h” value is over 1e-07 M. In addition, in the assay with human GPC3 on cells [1], the “IC50 (M) HepG2, xCELLigence human TDC assay, E:T 15:1, 60 h” value is 1.15e-10 M. Besides, the “IC50 (M) Huh-7, xCELLigence human TDC assay, E:T 15:1, 60 h” value in the assay with human GPC3 on cells [1] amounted to 1.16e-10 M. In the assay with human GPC3 on cells [1], the “IC50 (M) NCI-H23, xCELLigence human TDC assay, E:T 15:1, 60 h” value was over 1e-07 M. Further, the “IC50 (M) NCI-H661, xCELLigence human TDC assay, E:T 15:1, 60 h” value in the assay with human GPC3 on cells [1] came to 1.14e-10 M. Moreover, the Kd in assay [2] is under 0.0059 nM; in the assay with human GPC3 (recombinant), under 0.0056 nM; in assay [5] it was 5.4 nM. For the same molecule, the IC50 in [3] came out at 250 nM; in assay [4], 170 nM. Further, the “Primary hu T cells IC50 (M), xCELLigence TDC assay on Huh-7, E:T 15:1, 60 h” value in [6] was found to be 7.59e-11 M. Also, the “Primary cy T cells IC50 (M), xCELLigence TDC assay on Huh-7, E:T 15:1, 60 h” value in assay [7] came out at 2.29e-10 M. The EC50 in [8] amounted to 1.11 nM; with human GPC3 on cells [9], 1.25 nM; with human GPC3 on cells [10] it was 1.82 nM.

B2: monovalent CD33 building block (SEQ ID NO: 463) (VHH)
VHH: EVQLVESGGGVVQPGGSLRLSCAASGGVFRLNSMGWFRQAPGKQRELVAIITSDGDTNYADSVKGRFTISRDQAKNTVYLQMNSLRPEDTALYYCQITYSTSSYSFPINTWGQGTLVTVSS
Turning to B2, the EC50 in the assay with human CD33 on cells is 6.2 nM and 5.5 nM and 7.7 nM; with cynomolgus CD33 on cells, 5.7 nM and 12 nM.

B3: T0170056G05 (VHH, not shown: small tags and cut ends)
VHH: EVQLVESGGGLVQPGGSLRLSCVASGDVHKINFLGWYRQAPGKEREKVAHISIGDQTDYADSAKGRFTISRDESKNMVYLQMNSLKPEDTAVYFCRAFSRIYPYDYWGQGTLVTVSS
notes: also called T01700056G05; parental anti-TCR ISVD
On to B3, for which the Kd in assay [11] was 170 nM. For the same molecule, the EC50 turned out to be 83 nM in assay [12] and 140 nM in [13].
